What was measured:
[1] = target: human FcγRIIa R (allotype R131) extracellular domain (human) (UniProt P12318); assay: SPR Biacore 8K+; KD of G1d divided by KD of this antibody
[2] = target: human FcγRIIa R (allotype R131) extracellular domain (human) (UniProt P12318); assay: SPR Biacore 8K+, 25 C, antibody captured, FcγR as analyte, 1:1 Langmuir model
[3] = target: human FcγRIIa R (allotype R131) extracellular domain (human) (UniProt P12318); assay: SPR Biacore 8K+; KD for FcγRIIb divided by KD for this FcγR

Chain of EGL-afucosyl (H240-G1d/L73-k_glycomab) (antibody) (heavy): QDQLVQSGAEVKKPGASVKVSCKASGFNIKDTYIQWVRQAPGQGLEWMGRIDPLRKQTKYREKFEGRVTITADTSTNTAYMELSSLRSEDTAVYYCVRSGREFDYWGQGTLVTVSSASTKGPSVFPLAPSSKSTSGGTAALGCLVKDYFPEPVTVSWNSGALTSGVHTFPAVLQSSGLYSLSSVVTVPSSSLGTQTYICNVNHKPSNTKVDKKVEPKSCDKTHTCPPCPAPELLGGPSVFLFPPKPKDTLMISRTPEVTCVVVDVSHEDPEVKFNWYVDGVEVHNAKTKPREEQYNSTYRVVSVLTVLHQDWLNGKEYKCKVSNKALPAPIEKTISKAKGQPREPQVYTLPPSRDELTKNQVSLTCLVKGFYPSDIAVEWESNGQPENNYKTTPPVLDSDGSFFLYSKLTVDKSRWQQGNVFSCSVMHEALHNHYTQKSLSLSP
Chain of EGL-afucosyl (H240-G1d/L73-k_glycomab) (antibody) (VL): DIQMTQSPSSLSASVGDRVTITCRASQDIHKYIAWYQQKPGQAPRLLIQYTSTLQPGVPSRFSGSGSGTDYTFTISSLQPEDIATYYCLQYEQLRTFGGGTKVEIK
Chain of EGL-GASDALIE (H240-GASDALIE/L73-k0) (antibody) (heavy): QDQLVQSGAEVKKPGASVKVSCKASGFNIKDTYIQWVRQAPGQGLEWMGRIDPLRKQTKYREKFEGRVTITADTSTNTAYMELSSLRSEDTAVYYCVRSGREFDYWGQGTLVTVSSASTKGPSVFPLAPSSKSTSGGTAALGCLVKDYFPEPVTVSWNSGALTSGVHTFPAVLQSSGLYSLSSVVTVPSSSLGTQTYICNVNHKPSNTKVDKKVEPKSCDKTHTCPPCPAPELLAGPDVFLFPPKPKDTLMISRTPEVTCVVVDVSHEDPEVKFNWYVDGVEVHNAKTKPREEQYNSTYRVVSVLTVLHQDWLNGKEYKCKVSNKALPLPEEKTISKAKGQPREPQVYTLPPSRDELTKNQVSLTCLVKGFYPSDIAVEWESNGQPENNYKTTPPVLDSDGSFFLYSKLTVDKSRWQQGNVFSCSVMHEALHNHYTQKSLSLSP
Chain of EGL-GASDALIE (H240-GASDALIE/L73-k0) (antibody) (light): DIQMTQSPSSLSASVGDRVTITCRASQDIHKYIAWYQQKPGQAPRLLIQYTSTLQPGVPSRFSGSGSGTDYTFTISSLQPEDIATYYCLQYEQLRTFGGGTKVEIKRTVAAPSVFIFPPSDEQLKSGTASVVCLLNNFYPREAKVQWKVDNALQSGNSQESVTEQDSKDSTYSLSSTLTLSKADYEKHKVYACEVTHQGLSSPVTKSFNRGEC
Chain of human FcγRIIa R (allotype R131) extracellular domain (human) (P12318 34-217 H167R): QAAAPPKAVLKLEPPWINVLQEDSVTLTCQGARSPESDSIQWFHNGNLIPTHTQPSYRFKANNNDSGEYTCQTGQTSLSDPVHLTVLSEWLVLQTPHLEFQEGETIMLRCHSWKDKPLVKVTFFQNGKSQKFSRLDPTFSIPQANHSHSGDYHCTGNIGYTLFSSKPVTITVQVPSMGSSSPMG

Substance	Relative value to KD between G1d and hFcγRs [1] [times]	Kd [2] [nM]	A/I ratio (KD for FcγRIIb divided by KD for each FcγR) [3]
EGL-GASDALIE (H240-GASDALIE/L73-k0) (antibody)	10.3	161	16.5
EGL-afucosyl (H240-G1d/L73-k_glycomab) (antibody)	1.8	946	6

— US20230416371A1
